According to patent US20110251266, “APTAMER FOR NGF AND USE THEREOF” (Shionogi & Co., Ltd., published 2011):

Legend:
[1] = target: T1, beta-NGF (nerve growth factor) (Homo sapiens, UniProt P01138 P01138:122-241); assay: SPR; blocks NGF-TrkA and NGF-P75; PC-12 neurite inhibition + (Table 2); settings: tags: R&D Systems; chain copies: 2
Protocol: (§1) As directed in BIAcore Company's protocol, Protein A (21181, PIERCE) was immobilized on a CM5 sensor chip. About 1100 RU of human Trk A-Fc fused with the Fc portion of IgG (175-TK, R&D systems) was immobilized thereon. As the analyte, a mixture of NGF (0.1 μM) and each aptamer (0.33 μM) was injected after being allowed to stand for 30 minutes. […] When NGF binds stronger to a receptor than an aptamer, the aptamer may be removed and NGF may bind to the receptor. […] Using the binding amount of NGF and NGF receptor without an aptamer as 100, the binding amount of NGF and NGF receptor added with an aptamer was determined as a correction value. Here, the binding amount is the RU value at the peak top of the sensorgram of BIAcore (RU value immediately after completion of NGF injection). […] A similar experiment was performed for another receptor P75 (p75-Fc; R&D systems).

[2] = target: T1, beta-NGF (nerve growth factor); assay: SPR; NGF-TrkA and NGF-P75; no PC-12 inhibition; settings: tags: R&D Systems human NGF; chain copies: 2
Protocol: as §1

[3] = target: T1, beta-NGF (nerve growth factor); assay: cell_activity; Neuroscreen-1 neurite outgrowth, 1.1 nM NGF; settings: tags: R&D Systems human NGF; chain copies: 2
Protocol: The neurite outgrowth inhibitory activity of aptamer was evaluated by using Neuroscreen-1 cell, which is a subclone of PC-12 cells. 2500 Cells per well were cultured for one day in an RPMI-1640 medium containing 2.5% horse serum and 1.25% fetal bovine serum in a 96 well flat-bottom plate coated with collagen type IV. A mixed solution of NGF (final concentration 15 ng/ml or 1.1 nM) prereacted in a serum-free RPMI-1640 medium at room temperature or 37° C. for 30 min to 1 hr and an aptamer (final concentration 500-3 nM) was added. Two or three days later, the cytoplasm and nuclei were stained using Cellomics Neurite Outgrowth Kits (manufactured by Thermo Scientific), and neurite length per cell was measured by Cellomics ArrayScan VTI (manufactured by Thermo Scientific). With the neurite length per cell obtained by culturing the cell for 2 days with the addition of NGF alone as inhibitory activity 0%, and that of the cell obtained by NGF free culture as inhibitory activity 100%, the inhibitory activity of the aptamer was calculated from the neurite length per cell obtained by culturing with the addition of NGF and the aptamer in mixture. […] When the inhibitory activity was 0% or below, ‘0%’ is indicated. […] The 50% inhibitory concentration was determined from the concentrations at two, above and below points sandwiching the 50% inhibitory activity.

[4] = target: T1, beta-NGF (nerve growth factor); assay: SPR; more than 30N; cell IC50 26.1 nM; settings: tags: R&D Systems human NGF; chain copies: 2
[5] = target: T1, beta-NGF (nerve growth factor); assay: cell_activity; PC-12 neurite outgrowth, 500 nM aptamer; settings: tags: R&D Systems; chain copies: 2
Protocol: The physiological activity of aptamer was evaluated by a neurite outgrowth suppressive experiment using PC-12 cells. PC-12 cell, which is a cell line derived from rat adrenal gland pheochromocytoma, is a model cell of the nervous system, elongates neurite by NGF stimulation, and differentiates like nerve cells. Whether or not an aptamer inhibits the neurite outgrowth was evaluated. PC-12 cells were seeded on a 96 well flat-bottom plate coated with collagen, and a mixed solution of NGF (final concentration 25 ng/ml, or 1.9 nM) prereacted for 1 hr at 37° C. and an aptamer (final concentration 500 nM) was added to start the cell culture. Thereafter, the same amount of the aptamer was added twice every 24 hr and the level of neurite outgrowth was observed and evaluated on day 3 with a microscope. For evaluation, scores 0-3 were used, where score 0 is no neurite outgrowth, score 1 is slight neurite outgrowth, score 2 is neurite outgrowth to the nearby cell, and score 3 is markedly reticulated neurite outgrowth. The system wherein PC-12 cells were cultivated for 3 days with the addition of NGF alone was taken as a negative control, and system capable wherein the cells for 3 days without addition of NGF was taken as a positive control. […] Setting the score of the negative control as inhibitory activity 0%, and the score of the positive control as inhibitory activity 100%, the inhibitory activity (%) of the aptamer was calculated. An inhibitory activity of not less than 50% is shown with +, and that of less than 50% is shown with −.

[6] = target: T1, beta-NGF (nerve growth factor); assay: cell_activity; 100 nM aptamer; parent 92.7%; settings: tags: R&D Systems human NGF; chain copies: 2
Protocol: The neurite outgrowth inhibitory activity of aptamer was evaluated by using Neuroscreen-1 cell, which is a subclone of PC-12 cells. 2500 Cells per well were cultured for one day in an RPMI-1640 medium containing 2.5% horse serum and 1.25% fetal bovine serum in a 96 well flat-bottom plate coated with collagen type IV. A mixed solution of NGF (final concentration 15 ng/ml or 1.1 nM) prereacted in a serum-free RPMI-1640 medium at room temperature or 37° C. for 30 min to 1 hr and an aptamer (final concentration 500-3 nM) was added. Two or three days later, the cytoplasm and nuclei were stained using Cellomics Neurite Outgrowth Kits (manufactured by Thermo Scientific), and neurite length per cell was measured by Cellomics ArrayScan VTI (manufactured by Thermo Scientific). With the neurite length per cell obtained by culturing the cell for 2 days with the addition of NGF alone as inhibitory activity 0%, and that of the cell obtained by NGF free culture as inhibitory activity 100%, the inhibitory activity of the aptamer was calculated from the neurite length per cell obtained by culturing with the addition of NGF and the aptamer in mixture. […] When the inhibitory activity was 0% or below, ‘0%’ is indicated. When it was not less than 100%, ‘100%’ is indicated. The 50% inhibitory concentration was determined from the concentrations at two, above and below points sandwiching the 50% inhibitory activity.
Inverted dT is added to the 5′ and 3′ terminals. The activity was evaluated using Neuroscreen-1 cells in the same manner as in Example 8.

[7] = target: T1, beta-NGF (nerve growth factor); assay: SPR; more than 30N; inhibits TrkA and P75 binding; settings: tags: R&D Systems human NGF; chain copies: 2
Protocol: as §1

T1 sequence (P01138 122-241, one chain of several): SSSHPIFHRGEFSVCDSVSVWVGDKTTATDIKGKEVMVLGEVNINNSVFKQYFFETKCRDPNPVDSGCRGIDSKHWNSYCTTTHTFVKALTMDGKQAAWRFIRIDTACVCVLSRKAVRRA

B1: SEQ12 aptamer (ssRNA)
RNA: GGGAAGCCUGUGGAGCUGCGAAACAGUGAAACAAACCACAGACUGAGAAAGCAGUAACAGCAUUGUCACCAACAACUGG
modifications: 2'-F all pyrimidines
activity [1]: ≥ 60 % inhibition

UGUGGAGCUGCUAAACAGCAAGUGAAAAAAACCACA (ssRNA, 2'-F pyrimidines) [SEQ33 aptamer]
activity [2]: ≥ 60 % inhibition

B2: SEQ3 aptamer (ssRNA)
RNA: GGGAAGCCUGUGGAGCUGCAGGAUGAAAAAAACCCAAAAUAAGUAGAAAUGACAGAAUGGCAUUGUCACCAACAACUGG
modifications: 2'-F all pyrimidines
activity [1]: ≥ 60 % inhibition

GGGAAGCCUGUGGAGCUGCAGGAUGAAAAAAACCC (ssRNA, 2'-F pyrimidines) [SEQ36 aptamer]
activity [2]: ≥ 60 % inhibition

B3: SEQ6 aptamer (ssRNA)
RNA: GGGAAGCCUGUGGAGCUGCAGGAUGAAAAAAACCCAAAAUUAAAUAAAAAAUAGACGGUGCAUUGUCACCAACAACUGG
modifications: 2'-F all pyrimidines
activity [1]: ≥ 60 % inhibition

B4: SEQ7 aptamer (ssRNA)
RNA: GGGAAGCCUGUGGAGCUGCAGGAUGAAAAAAACCCAAAAUUAGAUAAAAAAUAGACGGUGCAUUGUCACCAACAACUGG
modifications: 2'-F all pyrimidines
activity [1]: ≥ 60 % inhibition

B5: SEQ5 aptamer (ssRNA)
RNA: GGGAAGCCUGUGGAGCUGCUUAAACAAGCAAGUGAAAAAAACCACAGCAAAUGUAAAAAGCAUUGUCACCAACAACUGG
modifications: 2'-F all pyrimidines
activity [1]: ≥ 60 % inhibition

GGAGCUGCCUACACUUUAGUAUGACAAACCUAGAGUGUAAAUGCUUC (ssRNA, 2'-F pyrimidines) [SEQ25 aptamer]
activity [2]: ≥ 60 % inhibition

B6: SEQ9 aptamer (ssRNA)
RNA: GGGAAGCCUGUGGAGCUGCUCCACAAGGAUGAAAAAAACCCAAAUAAUAUAUUUAAUCAGCAUUGUCACCAACAACUGG
modifications: 2'-F all pyrimidines
activity [1]: ≥ 60 % inhibition

B7: SEQ8 aptamer (ssRNA)
RNA: GGGAAGCCUGUGGAGCUGCGGAUAAAAAUAGAGUUUGAUAAACACCUGUAUUAAAACCGCAUUGUCACCAACAACUGG
modifications: 2'-F all pyrimidines
activity [1]: ≥ 60 % inhibition

B8: SEQ68 aptamer (ssRNA)
RNA: GGGAGAACUUCGACCAGAAGUCGAGAGCGAAAGAAACUCCCAAAACACAGUAUGUGCGCAUACAUGGAUCCUCA
modifications: 2'-F pyrimidines
IC50 [3]: 1.9 nM

GGGAGCCUGUAAACAGCAGGUGAAAAAAACCC (ssRNA, 2'-F pyrimidines) [SEQ90 aptamer]
activity [2]: ≥ 60 % inhibition

B9: SEQ4 aptamer (ssRNA)
RNA: GGGAAGCCUGUGGAGCUGCAGGAUGAAAAAAACCCAAAUAUGACAAAUAAAACGGCAACGCAUUGUCACCAACAACUGG
modifications: 2'-F all pyrimidines
activity [1]: ≥ 60 % inhibition

B10: SEQ44 aptamer (ssRNA)
RNA: GGGGAACUUCGACCAGAAGUUUGAAAGAAACCCAAAAUUAGCACCAUAAUAUGUGCGCAUACAUGGAUCCUCA
modifications: 2'-F pyrimidines
binding result [4]: binds

GGGAAGCCGUGGAGCUGCGGAUGAAAAAAACCC (ssRNA, 2'-F pyrimidines) [SEQ88 aptamer]
activity [2]: ≥ 60 % inhibition

B11: SEQ1 aptamer (ssRNA)
RNA: GGGAAGCCUGUGGAGCUGCAGGAUGAAAAAAACCCAAAAACAAAGACAAUGAUUGAGUAGCAUUGUCACCAACAACUGG
modifications: 2'-F all pyrimidines
activity [1]: ≥ 60 % inhibition

GGGAAGCCUGUGGAGCUGCAGGAUGAAAAAAACCCAAAAUUAAAU (ssRNA, 2'-F pyrimidines) [SEQ27 aptamer]
activity [2]: ≥ 60 % inhibition

UGUGGAGCUGCUUAAACAAGCAAGUGAAAAAAACCACA (ssRNA, 2'-F all pyrimidines) [SEQ32 aptamer]
activity [1]: ≥ 60 % inhibition

B12: SEQ32(1) (ssRNA)
RNA: UGUGGAGCUGCUUAAACAAGCAAGUGAAAAAAACCACA
modifications: 2'-F all pyrimidines; 2'-OMe at g10,a14,a15,a16,a18,a19,g20,a22,a23,g24; idT at 5' and 3' ends
activity [5]: ≥ 50 % inhibition

UGUGGAGCUGCUUAAACAAGCAAGUGAAAAAAACCACA (ssRNA, 2'-F all pyrimidines; 2'-OMe at a30,a31) [SEQ32(3)]
activity [5]: ≥ 50 % inhibition

UGUGGAGCUGCUUAAACAAGCAAGUGAAAAAAACCACA (ssRNA, 2'-F all pyrimidines; 2'-OMe at g2,a38) [SEQ32(2)]
activity [5]: ≥ 50 % inhibition

CGGAUAAAAAUAGAGUUUGAUAAACACCUGUAUUAAAACCG (ssRNA, as SEQ30(6) [as SEQ30(6) (positions not stated)]) [SEQ30(6) G1:C41 to C:G]
activity [6]: 92 % inhibition

GGGAUAAAAUUAGAGUUUGAUAAACACCUGUAAUAAAACCC (ssRNA, as SEQ30(6) [as SEQ30(6) (positions not stated)]) [SEQ30(6) A10:U33 to U:A]
activity [6]: 80.8 % inhibition

GGGAUAAAAAUAGAGUUUGAUAAACACCUGUAUUAAAACCC (ssRNA, 2'-F all pyrimidines; 2'-OMe at a9,a10) [SEQ30(2)]
activity [5]: ≥ 50 % inhibition

GGGAUAAAAAUAGAGUUUGAUAAACACCUGUAUUAAAACCC (ssRNA, 2'-F all pyrimidines; 2'-OMe at a35,a36) [SEQ30(3)]
activity [5]: ≥ 50 % inhibition

GGGAUAAAAAUAGAGUUUGAUAAACACCUGUAUUAAAACCC (ssRNA, 2'-F all pyrimidines) [SEQ30 aptamer]
activity [1]: ≥ 60 % inhibition

GGGAUAAAAAUUGAGUUUGAUAAACACCUGAAUUAAAACCC (ssRNA, as SEQ30(6) [as SEQ30(6) (positions not stated)]) [SEQ30(6) A12:U31 to U:A]
activity [6]: 93.1 % inhibition

B13: SEQ30(1) (ssRNA)
RNA: GGGAUAAAAAUAGAGUUUGAUAAACACCUGUAUUAAAACCC
modifications: 2'-F all pyrimidines; 2'-OMe at a12,g13,a14,g15,g19,a20,a22,a23,a24,a26; idT at 5' and 3' ends
activity [5]: ≥ 50 % inhibition

GGGAAGCCUGUAAACAGCAGGAUGAAAAAAACCC (ssRNA, 2'-F pyrimidines) [SEQ89 aptamer]
activity [2]: ≥ 60 % inhibition

GUGGAGCUGUUAAACAACAAGUGAAAAAAACCAC (ssRNA, 2'-F pyrimidines) [SEQ34 aptamer]
activity [2]: ≥ 60 % inhibition

B14: SEQ35(2) (ssRNA)
RNA: GGGAAGCCUGUGGAGCUGCAGGAUGAAAAAAACCCAAA
modifications: 2'-F all pyrimidines; 2'-OMe at a4,a5,g6,g10,g18,a20,g21,g22,a29,a30,a31,a32; idT at 5' and 3' ends
activity [5]: ≥ 50 % inhibition

GGGAAGCCUGUGGAGCUGCAGGAUGAAAAAAACCCAAA (ssRNA, 2'-F all pyrimidines; 2'-OMe at a36,a37,a38) [SEQ35(3)]
activity [5]: ≥ 50 % inhibition

GGGAGCUGCUUAAACAAGCAAGUGAAAAAAACCC (ssRNA, 2'-F pyrimidines) [SEQ31 aptamer]
activity [2]: ≥ 60 % inhibition

B15: SEQ60 aptamer (ssRNA)
RNA: GGGAGAACUUCGACCAGAGGAUUUGAAAAAAACCCGAAUAAAGAUAACAGUAUGUGCGCAUACAUGGAUCCUCA
modifications: 2'-F pyrimidines
binding result [7]: binds

GGGCUGUGGAGCUGCUUAAACAAGCAAGUGAAAAAAACCACAGCCC (ssRNA, 2'-F pyrimidines) [SEQ26 aptamer]
activity [2]: ≥ 60 % inhibition
